These results are taken from doi:10.1101/2023.06.28.546964.

This data set has as its target T1, PfAgo binding-pocket mutant (UniProt Q8U3D2).
T1 sequence: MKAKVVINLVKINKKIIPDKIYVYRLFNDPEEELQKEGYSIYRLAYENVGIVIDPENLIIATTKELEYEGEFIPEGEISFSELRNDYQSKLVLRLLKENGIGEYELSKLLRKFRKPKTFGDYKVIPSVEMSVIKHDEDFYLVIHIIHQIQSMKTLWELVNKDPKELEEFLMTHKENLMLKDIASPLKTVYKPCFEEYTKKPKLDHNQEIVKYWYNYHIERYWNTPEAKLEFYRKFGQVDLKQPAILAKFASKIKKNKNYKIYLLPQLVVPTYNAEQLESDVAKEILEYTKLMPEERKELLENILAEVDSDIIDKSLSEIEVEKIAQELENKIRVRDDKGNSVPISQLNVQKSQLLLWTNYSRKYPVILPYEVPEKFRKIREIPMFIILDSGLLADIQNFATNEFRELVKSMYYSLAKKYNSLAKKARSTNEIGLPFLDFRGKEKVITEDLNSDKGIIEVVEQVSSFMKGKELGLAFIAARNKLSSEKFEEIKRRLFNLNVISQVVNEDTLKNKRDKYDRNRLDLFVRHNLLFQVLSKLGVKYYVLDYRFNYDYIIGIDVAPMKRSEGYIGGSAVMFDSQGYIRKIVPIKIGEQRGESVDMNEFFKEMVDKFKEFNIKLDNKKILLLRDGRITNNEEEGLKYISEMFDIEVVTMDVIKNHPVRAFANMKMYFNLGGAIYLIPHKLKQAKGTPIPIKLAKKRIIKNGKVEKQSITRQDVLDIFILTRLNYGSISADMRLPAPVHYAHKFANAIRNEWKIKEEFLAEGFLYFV
The data set is described as follows: fluorescence polarization.

On to “ATATACTATACAACCTACTACCTCGTATAAATTTTTAAATAAATA [45nt DNA target]”, for which the binding signal (fold affinity gain) was found to be 3.

In the case of TGACGTAGTAGGTTGT [guide_m4], the binding signal (fold affinity gain (up to)) (5' phosphate) is 2.
